Laboratory results reported in patent publication US20150274831A1.

Tests used:
Test in all cases: cell-based or functional assay
[1] = molecular target: CSF-1R on cynomolgous monocytes (native receptor of CD14-enriched peripheral blood monocytes) (cynomolgous)
[2] = molecular target: human mutant CSF-1R L301S Y969F, full-length, on cells (human) (UniProt P07333)
[3] = molecular target: human wildtype CSF-1R (wt CSF-1R), full-length, on cells (human) (UniProt P07333)

Substance	% inhibition (of survival) = (100% - % survival) (CellTiterGlo; cynomolgous monocytes with 150 ng/ml huCSF-1; 5 µg/ml antibody) [1]	% survival (CellTiterGlo; cynomolgous monocytes with 150 ng/ml huCSF-1; 5 µg/ml antibody) [1]	Mutant CSF-1R IC30 [µg/ml] (cell viability, 3D culture, CellTiterGlo) [2]	Mutant CSF-1R IC50 [µg/ml] (cell viability, 3D culture, CellTiterGlo) [2]	IC50 CSF-1R Phosphorylation [3]	wtCSF-1R IC30 [µg/ml] (cell viability, 3D culture, CellTiterGlo) [3]	wtCSF-1R IC50 [µg/ml] (cell viability, 3D culture, CellTiterGlo) [3]	% inhibition at 20 µg/ml (mutant CSF-1R cells) [2]
Anti CSF-1R SC 2-4A5 (Santa Cruz Biotechnology, US) (antibody)	69%	31%	2.56 µg/mL	10 µg/mL	1.01 µg/mL	16.6 µg/mL	10 µg/mL	–
goat polyclonal anti-CSF-1R antibody ab10676 (abcam)	–	–	> 20 µg/mL	–	–	14.2 µg/mL	–	0%
